B1: library; numbered along this chain (parent)
chain: MRKPRAAVGSGHRKQAASQEGRQKHAKNNSQAKPSACDGLARQPEEVVLQASVSSYHLFRDVAEVTAFRGSLLSWYDQEKRDLPWRRRAEDEMDLDRRAYAVWVSEVMLQQTQVATVINYYTGWMQKWPTLQDLASASLEEVNQLWAGLGYYSRGRRLQEGARKVVEELGGHMPRTAETLQQLLPGVGRYTAGAIASIAFGQATGVVDGNVARVLCRVRAIGADPSSTLVSQQLWGLAQQLVDPARPGDFNQAAMELGATVCTPQRPLCSQCPVESLCRARQRVEQEQLLASGSLSGSPDVEECAPNTGQCHLCLPPSEPWDQTLGVVNFPRKASRKPPREESSATCVLEQPGALGAQILLVQRPNSGLLAGLWEFPSVTWEPSEQLQRKALLQELQRWAGPLPATHLRHLGEVVHTFSHIKLTYQVYGLALEGQTPVTTVPPGARWLTQEEFHTAAVSTAMKKVFRVYQGQQPGTCMGSKRSQVSSPCSRKKPRMGQQVLDNFFRSHISTDAHSLNSAAQ

Variants of: B1
Assay: 8OG:A repair function score (normalized; synonymous = 0, nonsense = -1) (normalized log-likelihood score); higher = more repair activity (WT-like)
Details: with 8OG:A DNA repair reporter (GFP) in HEK-293 MUTYH KO cells
Description: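 Saturation mutagenesis (NNN codon scan) of the MUTYH cDNA (521-aa nuclear isoform NM_001048174.1 / NP_001041639), stably expressed under doxycycline induction in HEK-293 MUTYH knockout cells. Cells were co-transfected with an 8OG:A-bearing GFP repair reporter plus mCherry and sorted 72 h later into GFP+ and GFP− bins, three replicates per tile. The Rosace log2 enrichment (GFP+ vs GFP−) was converted per tile to a normalized function score with synonymous variants centered at 0 and nonsense variants (codons 1-471) at -1; low-abundance variants were removed.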

Row | Variant | 8OG:A repair function score
1 | MRKPRAAVGSGHRKQAASQEGRQKHAKNNSQAKPSACDGLARQPEEVVLQASVSSYHLFRDVAEVTAFRGSLLSWYDQEKRDLPWRRRAEDEMDLDRRAYAVWVSEVMLQQTQVATVINYYTGWMQKWPTLQDLASASLEEYNQLWAGLGYYSRGRRLQEGARKVVEELGGHMPRTAETLQQLLPGVGRYTAGAIASIAFGQATGVVDGNVARVLCRVRAIGADPSSTLVSQQLWGLAQQLVDPARPGDFNQAAMELGATVCTPQRPLCSQCPVESLCRARQRVEQEQLLASGSLSGSPDVEECAPNTGQCHLCLPPSEPWDQTLGVVNFPRKASRKPPREESSATCVLEQPGALGAQILLVQRPNSGLLAGLWEFPSVTWEPSEQLQRKALLQELQRWAGPLPATHLRHLGEVVHTFSHIKLTYQVYGLALEGQTPVTTVPPGARWLTQEEFHTAAVSTAMKKVFRVYQGQQPGTCMGSKRSQVSSPCSRKKPRMGQQVLDNFFRSHISTDAHSLNSAAQ [V142Y] | -0.971
2 | MRKPRAAVGSGHRKQAASQEGRQKHAKNNSQAKPSACDGLARQPEEVVLQASVSSYHLFRDVAEVTAFRGSLLSWYDQEKRDLPWRRRAEDEMDLDRRAYAVWVSEVMLQQTQVATVINYYTGWMQKWPTLQDLASASLEEWNQLWAGLGYYSRGRRLQEGARKVVEELGGHMPRTAETLQQLLPGVGRYTAGAIASIAFGQATGVVDGNVARVLCRVRAIGADPSSTLVSQQLWGLAQQLVDPARPGDFNQAAMELGATVCTPQRPLCSQCPVESLCRARQRVEQEQLLASGSLSGSPDVEECAPNTGQCHLCLPPSEPWDQTLGVVNFPRKASRKPPREESSATCVLEQPGALGAQILLVQRPNSGLLAGLWEFPSVTWEPSEQLQRKALLQELQRWAGPLPATHLRHLGEVVHTFSHIKLTYQVYGLALEGQTPVTTVPPGARWLTQEEFHTAAVSTAMKKVFRVYQGQQPGTCMGSKRSQVSSPCSRKKPRMGQQVLDNFFRSHISTDAHSLNSAAQ [V142W] | -0.941
3 | MRKPRAAVGSGHRKQAASQEGRQKHAKNNSQAKPSACDGLARQPEEVVLQASVSSYHLFRDVAEVTAFRGSLLSWYDQEKRDLPWRRRAEDEMDLDRRAYAVWVSEVMLQQTQVATVINYYTGWMQKWPTLQDLASASLEETNQLWAGLGYYSRGRRLQEGARKVVEELGGHMPRTAETLQQLLPGVGRYTAGAIASIAFGQATGVVDGNVARVLCRVRAIGADPSSTLVSQQLWGLAQQLVDPARPGDFNQAAMELGATVCTPQRPLCSQCPVESLCRARQRVEQEQLLASGSLSGSPDVEECAPNTGQCHLCLPPSEPWDQTLGVVNFPRKASRKPPREESSATCVLEQPGALGAQILLVQRPNSGLLAGLWEFPSVTWEPSEQLQRKALLQELQRWAGPLPATHLRHLGEVVHTFSHIKLTYQVYGLALEGQTPVTTVPPGARWLTQEEFHTAAVSTAMKKVFRVYQGQQPGTCMGSKRSQVSSPCSRKKPRMGQQVLDNFFRSHISTDAHSLNSAAQ [V142T] | -0.532
4 | MRKPRAAVGSGHRKQAASQEGRQKHAKNNSQAKPSACDGLARQPEEVVLQASVSSYHLFRDVAEVTAFRGSLLSWYDQEKRDLPWRRRAEDEMDLDRRAYAVWVSEVMLQQTQVATVINYYTGWMQKWPTLQDLASASLEEVGQLWAGLGYYSRGRRLQEGARKVVEELGGHMPRTAETLQQLLPGVGRYTAGAIASIAFGQATGVVDGNVARVLCRVRAIGADPSSTLVSQQLWGLAQQLVDPARPGDFNQAAMELGATVCTPQRPLCSQCPVESLCRARQRVEQEQLLASGSLSGSPDVEECAPNTGQCHLCLPPSEPWDQTLGVVNFPRKASRKPPREESSATCVLEQPGALGAQILLVQRPNSGLLAGLWEFPSVTWEPSEQLQRKALLQELQRWAGPLPATHLRHLGEVVHTFSHIKLTYQVYGLALEGQTPVTTVPPGARWLTQEEFHTAAVSTAMKKVFRVYQGQQPGTCMGSKRSQVSSPCSRKKPRMGQQVLDNFFRSHISTDAHSLNSAAQ [N143G] | -0.139
5 | MRKPRAAVGSGHRKQAASQEGRQKHAKNNSQAKPSACDGLARQPEEVVLQASVSSYHLFRDVAEVTAFRGSLLSWYDQEKRDLPWRRRAEDEMDLDRRAYAVWVSEVMLQQTQVATVINYYTGWMQKWPTLQDLASASLEEVAQLWAGLGYYSRGRRLQEGARKVVEELGGHMPRTAETLQQLLPGVGRYTAGAIASIAFGQATGVVDGNVARVLCRVRAIGADPSSTLVSQQLWGLAQQLVDPARPGDFNQAAMELGATVCTPQRPLCSQCPVESLCRARQRVEQEQLLASGSLSGSPDVEECAPNTGQCHLCLPPSEPWDQTLGVVNFPRKASRKPPREESSATCVLEQPGALGAQILLVQRPNSGLLAGLWEFPSVTWEPSEQLQRKALLQELQRWAGPLPATHLRHLGEVVHTFSHIKLTYQVYGLALEGQTPVTTVPPGARWLTQEEFHTAAVSTAMKKVFRVYQGQQPGTCMGSKRSQVSSPCSRKKPRMGQQVLDNFFRSHISTDAHSLNSAAQ [N143A] | -0.35
6 | MRKPRAAVGSGHRKQAASQEGRQKHAKNNSQAKPSACDGLARQPEEVVLQASVSSYHLFRDVAEVTAFRGSLLSWYDQEKRDLPWRRRAEDEMDLDRRAYAVWVSEVMLQQTQVATVINYYTGWMQKWPTLQDLASASLEEVCQLWAGLGYYSRGRRLQEGARKVVEELGGHMPRTAETLQQLLPGVGRYTAGAIASIAFGQATGVVDGNVARVLCRVRAIGADPSSTLVSQQLWGLAQQLVDPARPGDFNQAAMELGATVCTPQRPLCSQCPVESLCRARQRVEQEQLLASGSLSGSPDVEECAPNTGQCHLCLPPSEPWDQTLGVVNFPRKASRKPPREESSATCVLEQPGALGAQILLVQRPNSGLLAGLWEFPSVTWEPSEQLQRKALLQELQRWAGPLPATHLRHLGEVVHTFSHIKLTYQVYGLALEGQTPVTTVPPGARWLTQEEFHTAAVSTAMKKVFRVYQGQQPGTCMGSKRSQVSSPCSRKKPRMGQQVLDNFFRSHISTDAHSLNSAAQ [N143C] | -0.216
7 | MRKPRAAVGSGHRKQAASQEGRQKHAKNNSQAKPSACDGLARQPEEVVLQASVSSYHLFRDVAEVTAFRGSLLSWYDQEKRDLPWRRRAEDEMDLDRRAYAVWVSEVMLQQTQVATVINYYTGWMQKWPTLQDLASASLEEVIQLWAGLGYYSRGRRLQEGARKVVEELGGHMPRTAETLQQLLPGVGRYTAGAIASIAFGQATGVVDGNVARVLCRVRAIGADPSSTLVSQQLWGLAQQLVDPARPGDFNQAAMELGATVCTPQRPLCSQCPVESLCRARQRVEQEQLLASGSLSGSPDVEECAPNTGQCHLCLPPSEPWDQTLGVVNFPRKASRKPPREESSATCVLEQPGALGAQILLVQRPNSGLLAGLWEFPSVTWEPSEQLQRKALLQELQRWAGPLPATHLRHLGEVVHTFSHIKLTYQVYGLALEGQTPVTTVPPGARWLTQEEFHTAAVSTAMKKVFRVYQGQQPGTCMGSKRSQVSSPCSRKKPRMGQQVLDNFFRSHISTDAHSLNSAAQ [N143I] | -0.0751
8 | MRKPRAAVGSGHRKQAASQEGRQKHAKNNSQAKPSACDGLARQPEEVVLQASVSSYHLFRDVAEVTAFRGSLLSWYDQEKRDLPWRRRAEDEMDLDRRAYAVWVSEVMLQQTQVATVINYYTGWMQKWPTLQDLASASLEEVEQLWAGLGYYSRGRRLQEGARKVVEELGGHMPRTAETLQQLLPGVGRYTAGAIASIAFGQATGVVDGNVARVLCRVRAIGADPSSTLVSQQLWGLAQQLVDPARPGDFNQAAMELGATVCTPQRPLCSQCPVESLCRARQRVEQEQLLASGSLSGSPDVEECAPNTGQCHLCLPPSEPWDQTLGVVNFPRKASRKPPREESSATCVLEQPGALGAQILLVQRPNSGLLAGLWEFPSVTWEPSEQLQRKALLQELQRWAGPLPATHLRHLGEVVHTFSHIKLTYQVYGLALEGQTPVTTVPPGARWLTQEEFHTAAVSTAMKKVFRVYQGQQPGTCMGSKRSQVSSPCSRKKPRMGQQVLDNFFRSHISTDAHSLNSAAQ [N143E] | -0.196
9 | MRKPRAAVGSGHRKQAASQEGRQKHAKNNSQAKPSACDGLARQPEEVVLQASVSSYHLFRDVAEVTAFRGSLLSWYDQEKRDLPWRRRAEDEMDLDRRAYAVWVSEVMLQQTQVATVINYYTGWMQKWPTLQDLASASLEEVKQLWAGLGYYSRGRRLQEGARKVVEELGGHMPRTAETLQQLLPGVGRYTAGAIASIAFGQATGVVDGNVARVLCRVRAIGADPSSTLVSQQLWGLAQQLVDPARPGDFNQAAMELGATVCTPQRPLCSQCPVESLCRARQRVEQEQLLASGSLSGSPDVEECAPNTGQCHLCLPPSEPWDQTLGVVNFPRKASRKPPREESSATCVLEQPGALGAQILLVQRPNSGLLAGLWEFPSVTWEPSEQLQRKALLQELQRWAGPLPATHLRHLGEVVHTFSHIKLTYQVYGLALEGQTPVTTVPPGARWLTQEEFHTAAVSTAMKKVFRVYQGQQPGTCMGSKRSQVSSPCSRKKPRMGQQVLDNFFRSHISTDAHSLNSAAQ [N143K] | -0.343
10 | MRKPRAAVGSGHRKQAASQEGRQKHAKNNSQAKPSACDGLARQPEEVVLQASVSSYHLFRDVAEVTAFRGSLLSWYDQEKRDLPWRRRAEDEMDLDRRAYAVWVSEVMLQQTQVATVINYYTGWMQKWPTLQDLASASLEEVDQLWAGLGYYSRGRRLQEGARKVVEELGGHMPRTAETLQQLLPGVGRYTAGAIASIAFGQATGVVDGNVARVLCRVRAIGADPSSTLVSQQLWGLAQQLVDPARPGDFNQAAMELGATVCTPQRPLCSQCPVESLCRARQRVEQEQLLASGSLSGSPDVEECAPNTGQCHLCLPPSEPWDQTLGVVNFPRKASRKPPREESSATCVLEQPGALGAQILLVQRPNSGLLAGLWEFPSVTWEPSEQLQRKALLQELQRWAGPLPATHLRHLGEVVHTFSHIKLTYQVYGLALEGQTPVTTVPPGARWLTQEEFHTAAVSTAMKKVFRVYQGQQPGTCMGSKRSQVSSPCSRKKPRMGQQVLDNFFRSHISTDAHSLNSAAQ [N143D] | -0.456
11 | MRKPRAAVGSGHRKQAASQEGRQKHAKNNSQAKPSACDGLARQPEEVVLQASVSSYHLFRDVAEVTAFRGSLLSWYDQEKRDLPWRRRAEDEMDLDRRAYAVWVSEVMLQQTQVATVINYYTGWMQKWPTLQDLASASLEEVHQLWAGLGYYSRGRRLQEGARKVVEELGGHMPRTAETLQQLLPGVGRYTAGAIASIAFGQATGVVDGNVARVLCRVRAIGADPSSTLVSQQLWGLAQQLVDPARPGDFNQAAMELGATVCTPQRPLCSQCPVESLCRARQRVEQEQLLASGSLSGSPDVEECAPNTGQCHLCLPPSEPWDQTLGVVNFPRKASRKPPREESSATCVLEQPGALGAQILLVQRPNSGLLAGLWEFPSVTWEPSEQLQRKALLQELQRWAGPLPATHLRHLGEVVHTFSHIKLTYQVYGLALEGQTPVTTVPPGARWLTQEEFHTAAVSTAMKKVFRVYQGQQPGTCMGSKRSQVSSPCSRKKPRMGQQVLDNFFRSHISTDAHSLNSAAQ [N143H] | -0.621
12 | MRKPRAAVGSGHRKQAASQEGRQKHAKNNSQAKPSACDGLARQPEEVVLQASVSSYHLFRDVAEVTAFRGSLLSWYDQEKRDLPWRRRAEDEMDLDRRAYAVWVSEVMLQQTQVATVINYYTGWMQKWPTLQDLASASLEEVFQLWAGLGYYSRGRRLQEGARKVVEELGGHMPRTAETLQQLLPGVGRYTAGAIASIAFGQATGVVDGNVARVLCRVRAIGADPSSTLVSQQLWGLAQQLVDPARPGDFNQAAMELGATVCTPQRPLCSQCPVESLCRARQRVEQEQLLASGSLSGSPDVEECAPNTGQCHLCLPPSEPWDQTLGVVNFPRKASRKPPREESSATCVLEQPGALGAQILLVQRPNSGLLAGLWEFPSVTWEPSEQLQRKALLQELQRWAGPLPATHLRHLGEVVHTFSHIKLTYQVYGLALEGQTPVTTVPPGARWLTQEEFHTAAVSTAMKKVFRVYQGQQPGTCMGSKRSQVSSPCSRKKPRMGQQVLDNFFRSHISTDAHSLNSAAQ [N143F] | -0.0267

Source: the supplement of paper PMC11908140
